Residue numbers refer to the chain shown, from its start. Like-named read-outs stand apart in the source and are kept apart here. One block for each binder: values may come before it.
Key:
[1] = target: T1, relipidated TF (UniProt P13726 33-295, limits assumed); assay: cell-based or functional assay
[2] = target: T2, human TF ECD-His6 (human, UniProt P13726 33-251); assay: BLI (ForteBio Octet)
T2 construct: made in Expi293 cells; the entry holds the ECD with the C-terminal TG-His6; also called TF-His; hTF

[3] = target: T3, cynomolgus TF ECD-His6 (cynomolgus monkey (Macaca fascicularis)); assay: BLI (ForteBio Octet)
T3 construct: made in Expi293 cells; also called TF-His; cTF
T3 chain: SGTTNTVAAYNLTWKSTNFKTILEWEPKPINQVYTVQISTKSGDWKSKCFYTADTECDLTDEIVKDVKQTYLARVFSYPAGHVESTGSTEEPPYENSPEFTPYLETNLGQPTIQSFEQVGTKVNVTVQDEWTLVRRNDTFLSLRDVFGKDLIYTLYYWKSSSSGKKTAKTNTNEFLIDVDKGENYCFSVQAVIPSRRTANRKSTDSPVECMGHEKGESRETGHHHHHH

[4] = target: T1, relipidated TF; assay: cell-based or functional assay; remark: listed apart in the source
[5] = target: T1, relipidated TF; assay: cell-based or functional assay; remark: listed apart in the source
[6] = target: T1, relipidated TF; assay: cell-based or functional assay; remark: listed apart in the source
[7] = target: T2, human TF ECD-His6; assay: SPR (Biacore), antibody on chip, TF-His titrated
[8] = target: T3, cynomolgus TF ECD-His6; assay: SPR (Biacore), antibody on chip, TF-His titrated
[9] = target: rTF (rat TF) on HEK293 cells (rat, UniProt P42533 29-252); assay: live cell staining of transfected HEK293, flow cytometry
rTF (rat TF) on HEK293 cells, sequence (P42533 29-252): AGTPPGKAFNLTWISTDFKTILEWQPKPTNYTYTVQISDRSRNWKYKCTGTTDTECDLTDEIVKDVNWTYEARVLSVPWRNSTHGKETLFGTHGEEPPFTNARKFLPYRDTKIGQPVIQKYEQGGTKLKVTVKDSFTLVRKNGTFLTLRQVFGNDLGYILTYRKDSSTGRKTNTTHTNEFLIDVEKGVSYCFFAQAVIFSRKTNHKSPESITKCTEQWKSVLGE

[10] = target: T4, human Tissue Factor on MDA-MB-231 cells (human, UniProt P13726 33-295); assay: cell-based or functional assay
[11] = target: T4, human Tissue Factor on MDA-MB-231 cells; assay: cell-based or functional assay; remark: listed apart in the source
[12] = target: T4, human Tissue Factor on MDA-MB-231 cells; assay: flow cytometry, MDA-MB-231 cells; binding of 20 nM FVII-Fc-Alexa488 (competitor) left at 83 nM Ab
[13] = target: T5, human Tissue Factor (hTF), endogenously expressed on human TF-positive cells (human, UniProt P13726 33-295); assay: cell-based or functional assay
[14] = target: T5, human Tissue Factor (hTF), endogenously …; assay: flow cytometry competition on A431 cells, 100 nM unlabelled antibody, competitor 20 nM 25A-Alexa488
[15] = target: T5, human Tissue Factor (hTF), endogenously …; assay: flow cytometry competition on A431 cells, 100 nM unlabelled antibody, competitor 20 nM 43Ea-Alexa488
[16] = target: T6, pig TF-His (pig (Sus scrofa)); assay: SPR (Biacore), antibody captured by anti-human IgG on CM5 chip, pig TF-His in solution, 1:1 model
T6 construct: also called pig TF ECD-His; pTF
T6 chain: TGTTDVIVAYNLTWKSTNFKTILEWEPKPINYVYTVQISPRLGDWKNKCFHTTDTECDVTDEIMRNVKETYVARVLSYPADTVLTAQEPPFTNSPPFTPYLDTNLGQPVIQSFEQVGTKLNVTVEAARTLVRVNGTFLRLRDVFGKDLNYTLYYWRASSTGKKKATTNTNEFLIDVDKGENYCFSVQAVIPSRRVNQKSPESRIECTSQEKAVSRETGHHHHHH

[17] = target: T7, rabbit TF-His (rabbit (Oryctolagus cuniculus), UniProt P24055 33-250); assay: SPR (Biacore), antibody captured by anti-human IgG on CM5 chip, rabbit TF-His in solution, 1:1 model
T7 construct: also called rabbit TF ECD-His
T7 sequence (P24055 other isoform, or with tags, fused parts or gaps): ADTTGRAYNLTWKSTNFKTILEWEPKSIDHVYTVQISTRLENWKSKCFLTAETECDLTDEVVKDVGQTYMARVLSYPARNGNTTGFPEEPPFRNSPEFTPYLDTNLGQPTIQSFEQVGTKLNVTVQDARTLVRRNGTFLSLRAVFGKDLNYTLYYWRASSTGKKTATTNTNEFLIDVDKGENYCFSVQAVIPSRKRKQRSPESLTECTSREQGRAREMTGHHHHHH

[18] = target: T4, human Tissue Factor on MDA-MB-231 cells; assay: flow cytometry, MDA-MB-231 cells; binding of 20 nM FVII-Fc-Alexa488 (competitor) left at 250 nM Ab
[19] = target: T4, human Tissue Factor on MDA-MB-231 cells; assay: flow cytometry, MDA-MB-231 cells; binding of 20 nM FVII-Fc-Alexa488 (competitor) left at 9.25 nM Ab

B2: 25G (antibody, human IgG1, kappa, V domains shown)
VH: QVQLVQSGAEVKKPGASVKVSCKASGYTFRSYGISWVRQAPGQGLEWMGWVAPYNGNTNYAQKLQGRVTMTTDTSTSTAYMELRSLRSDDTAVYYCARDAGTYSPYGYGMDVWGQGTTVTVSS
VL: DIQMTQSPSTLSASVGDRVTITCRASQSISSWLAWYQQKPGKAPKLLIYKASSLESGVPSRFSGSGSGTEFTLTISSLQPDDFATYYCQQFQSLPPFTFGGGTKVEIKR
notes: Human anti-TF IgG1
% FXa, 12.5 nM Ab [10]: 99% | % FXa, 25 nM Ab [10]: 109% | % FXa, 100 nM Ab [10]: 116% | % IL8, 2.56 nM Ab [11]: 60% | % IL8, 6.4 nM Ab [11]: 22% | % IL8, 16 nM Ab [11]: 16% | % IL8, 40 nM Ab [11]: 10% | % IL8, 100 nM Ab [11]: 9% | % FVIIa [12]: 93%

B5: 25A (antibody, human IgG1, V domains shown)
VH: B2 VH with R30D, S31V, V51I, Y106F
VL: DIQMTQSPSTLSASVGDRVTITCRASQSISSWLAWYQQKPGKAPKLLIYKASSLESGVPSRFSGSGSGTEFTLTISSLQPDDFATYYCQQFQSLPPFTFGGGTKVEIK
notes: Human IgG1; also called antibody 25A
Kd [16]: 18.7 nM | Kd [17]: 50.5 nM

B6: 25A (antibody, V domains shown)
VH: B2 VH with R30D, S31V, V51I, Y106F
VL: B5 VL
notes: Human anti-TF IgG1
% IL8, 2.56 nM Ab [11]: 43% | % IL8, 6.4 nM Ab [11]: 11% | % IL8, 16 nM Ab [11]: 10% | % IL8, 40 nM Ab [11]: 8% | % IL8, 100 nM Ab [11]: 9% | % FVIIa [12]: 97% | % FVIIa [18]: 98% | % FVIIa [19]: 100%

Other lines, results leading:

decrease of peak IIa concentration, TGA with 10 min pre-incubation, 100 nM Ab [1]: 93% | decrease of peak IIa concentration, TGA without pre-incubation, 100 nM Ab [1]: 91% | Kd [2]: 0.83 nM | Kd [3]: 0.57 nM | TGA without pre-incubation, 10 nM Ab: % ETP [4]: 55% | TGA without pre-incubation, 10 nM Ab: % Peak IIa [4]: 20% | TGA without pre-incubation, 10 nM Ab: ETP [4]: 1330 nM·min | TGA without pre-incubation, 10 nM Ab: Lag Time [4]: 12.1 min | TGA without pre-incubation, 10 nM Ab: Peak IIa [4]: 82 nM | TGA without pre-incubation, 10 nM Ab: ttPeak [4]: 19.6 min | TGA without pre-incubation, 50 nM Ab: % Peak IIa [4]: 7% | TGA without pre-incubation, 50 nM Ab: Lag Time [4]: 30.5 min | TGA without pre-incubation, 50 nM Ab: Peak IIa [4]: 30 nM | TGA without pre-incubation, 50 nM Ab: ttPeak [4]: 40 min | TGA without pre-incubation, 100 nM Ab: % Peak IIa [4]: 6% | TGA without pre-incubation, 100 nM Ab: Lag Time [4]: 28.9 min | TGA without pre-incubation, 100 nM Ab: Peak IIa [4]: 26 nM | TGA without pre-incubation, 100 nM Ab: ttPeak [4]: 40.1 min | TGA without pre-incubation, 10 nM Ab: % ETP [5]: 58% | TGA without pre-incubation, 10 nM Ab: % Peak IIa [5]: 24% | TGA without pre-incubation, 10 nM Ab: ETP [5]: 1330 nM·min | TGA without pre-incubation, 10 nM Ab: Lag Time [5]: 12.4 min | TGA without pre-incubation, 10 nM Ab: Peak IIa [5]: 84 nM | TGA without pre-incubation, 10 nM Ab: ttPeak [5]: 20.7 min | TGA without pre-incubation, 50 nM Ab: % Peak IIa [5]: 8% | TGA without pre-incubation, 50 nM Ab: Lag Time [5]: 33.1 min | TGA without pre-incubation, 50 nM Ab: Peak IIa [5]: 29 nM | TGA without pre-incubation, 50 nM Ab: ttPeak [5]: 43.2 min | TGA without pre-incubation, 100 nM Ab: % Peak IIa [5]: 6% | TGA without pre-incubation, 100 nM Ab: Lag Time [5]: 38.1 min | TGA without pre-incubation, 100 nM Ab: Peak IIa [5]: 22 nM | TGA without pre-incubation, 100 nM Ab: ttPeak [5]: 48.3 min | TGA with 10 min pre-incubation, 10 nM Ab: % Peak IIa [6]: 11% | TGA with 10 min pre-incubation, 10 nM Ab: Lag Time [6]: 20.9 min | TGA with 10 min pre-incubation, 10 nM Ab: Peak IIa [6]: 30 nM | TGA with 10 min pre-incubation, 10 nM Ab: ttPeak [6]: 30.8 min | TGA with 10 min pre-incubation, 50 nM Ab: % Peak IIa [6]: 8% | TGA with 10 min pre-incubation, 50 nM Ab: Lag Time [6]: 29 min | TGA with 10 min pre-incubation, 50 nM Ab: Peak IIa [6]: 21 nM | TGA with 10 min pre-incubation, 50 nM Ab: ttPeak [6]: 39.7 min | TGA with 10 min pre-incubation, 100 nM Ab: % Peak IIa [6]: 6% | TGA with 10 min pre-incubation, 100 nM Ab: Lag Time [6]: 32.1 min | TGA with 10 min pre-incubation, 100 nM Ab: Peak IIa [6]: 17 nM | TGA with 10 min pre-incubation, 100 nM Ab: ttPeak [6]: 43.2 min | Kd [7]: 0.09 nM | Kd [8]: 0.08 nM | binding result [9]: no binding (tested: 15 µg/ml (100 nM))
B1: 39A (antibody, human IgG1, V domains shown)
VH: QVQLVQSGAEVKKPGSSVKVSCKASGGTFSSNAIGWVRQAPGQGLEWMGSIIPIIGFANYAQKFQGRVTITADESTSTAYMELSSLRSEDTAVYYCARDSGYYYGASSFGMDVWGQGTTVTVSS
VL: EIVMTQSPATLSVSPGERATLSCRASQSVSSNLAWYQQKPGQAPRLLIYGASTRATGIPARFSGSGSGTEFTLTISSLQSEDFAVYYCEQYNNLPLTFGGGTKVEIK
notes: human IgG1

% GM-CSF, 2.56 nM antibody, MDA-MB-231 cells + FVIIa [13]: 77% | % GM-CSF, 6.4 nM antibody, MDA-MB-231 cells + FVIIa [13]: 39% | % GM-CSF, 16 nM antibody, MDA-MB-231 cells + FVIIa [13]: 32% | % GM-CSF, 40 nM antibody, MDA-MB-231 cells + FVIIa [13]: 18% | % GM-CSF, 100 nM antibody, MDA-MB-231 cells + FVIIa [13]: 19% | % 25A binding [14]: 7% | % 43Ea binding [15]: 3%
B3: anti-TF antibody 25G (antibody, human IgG1, kappa, V domains shown)
VH: B2 VH
VL: B2 VL
notes: Human IgG1

Kd [16]: 26 nM | Kd [17]: 75.5 nM
B4: 25G (antibody, human IgG1, kappa, V domains shown)
VH: B2 VH
VL: B2 VL
notes: Human IgG1; also called antibody 25G

From patent US20240166765A1 (ICONIC THERAPEUTICS, published 2024)
